Results on four molecules are retold here after patent US20040014147A1 (RIGEL PHARMACEUTICALS, published 2004).

Like-named read-outs stand apart in the source and are kept apart here. Where no end group is shown, it is not given here.

For assay [1], the target named is T1, human adenosine kinase (human, UniProt P55263 22-362). The assay can be described thus: cell-based or functional assay.
Assay [2] concerns the target T1, human adenosine kinase. The assay can be described thus: cell-based or functional assay. This is another data set of the same source.

T1 sequence (P55263 other isoform, or with tags, fused parts or gaps): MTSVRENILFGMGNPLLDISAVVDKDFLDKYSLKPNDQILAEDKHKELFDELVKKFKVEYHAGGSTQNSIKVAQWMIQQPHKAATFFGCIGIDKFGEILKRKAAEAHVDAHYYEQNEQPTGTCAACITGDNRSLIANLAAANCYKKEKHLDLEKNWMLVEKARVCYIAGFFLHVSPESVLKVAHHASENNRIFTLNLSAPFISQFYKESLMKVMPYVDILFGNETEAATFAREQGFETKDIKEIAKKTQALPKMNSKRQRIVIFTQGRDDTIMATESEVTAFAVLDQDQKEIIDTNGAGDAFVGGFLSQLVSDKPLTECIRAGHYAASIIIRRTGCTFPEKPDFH

B1: peptide AR02E8 wt (peptide, not shown: large carriers)
peptide: DTMQVQCGVCRSGYVVAFWDVGP
modifications: cysteine pairing not given here; also: expressed as GAL4/BFP-linker-peptide fusion, fusion sequences not given here
Turning to B1, the figures for the Reporter Ratio with human adenosine kinase [1] and with human adenosine kinase [2] were 1.77 and 2.93, respectively. Further, the “endogenous ε inhibition ratio” value with human adenosine kinase [1] stood at 15.3.

B2: peptide AR02E8RS (peptide, not shown: large carriers)
peptide: DTMQVQCGVCAGGYVVAFWDVGP
For B2, the “Reporter Ratio” value with human adenosine kinase [2] came to 1.46.

B3: peptide AR02E8VC (peptide, not shown: large carriers)
peptide: DTMQVQCGAGRSGYVVAFWDVGP
Turning to B3, the “Reporter Ratio” value with human adenosine kinase [2] worked out at 1.13.

B4: peptide AR02E8YV (peptide, not shown: large carriers)
peptide: DTMQVQCGVCRSGAGVAFWDVGP
Regarding B4, in the assay with human adenosine kinase [2], the “Reporter Ratio” value is 1.07.
